Results: the DeepSol protein solubility set

Assay: soluble on expression in E. coli; label from the status in PepcDB or PDB records

Soluble on expression in E. coli, soluble:
MAVYRTVQVNFWQDDFVLDLTPEERYFYVYLLTCSKTTQCGIFPFPKRLAEMETGYNRETVDKLVQRFVDYGKILYDAETRELFVLNWLRYNPVTNTNVEKCVLRELKGVKNKEFVHMFLQKCVEEELNVPMLLAHFGMPSDLAVDDVEPVCEEAEEEEVIEEETGSRVFSFYEQHFGSLSPHTVEELSAWMEDLSEELVLKALQIAFENNKRTVAYVKGILRGWHGKGFTKVSEVEADTASFRKKDLSVSTGETEEFLARCEEWEKNAPSEEELQRFLAERGWRP
MGKGDPKKPRGKMSSYAFFVQTCREEHKKKHPDASVNFSEFSKKCSERWKTMSAKEKGKFEDMAKADKARYEREMKTYIPPKGETKKKFKDPNAPKRPPSAFFLFCSEYRPKIKGEHPGLSIGDVAKKLGEMWNNTAADDKQPYEKKAAKLKEKYEKDIAAYRAKGKPDAAKKGVVKAEKSKKKKEEEEDEEDEEDEEEEEDEEDEDEEEDDDDE
MSLNNKVIKKEVEEYLSRYFEGKDNYNKRVYESMNYSLNAGGKRVRPLLLLASYAIYNKDYKEVIDIAAAIEMIHTYSLIHDDLPCMDNDDLRRGRPTNHKIFGYSIALLAGDGLLNEAMNIMFKYCIGKGEEALKACLMISKAASSDGMIGGQVVDILSEGKKINEDELRYMHKKKTGELIKAAVVSGAILGGAPLHDVELLSQYGDKLGLAFQIEDDILDIIGDTKIMGKTSKSDLENDKCTYVTLYGIDKCKSICRELTDECLDIIGKIQGNTELLKEITELLLKRNREGHHHHHH
MADEEDPCGGGKKNPRKRCQPDVDPEEDSEPDLDGPQPPFRGRSSTVTDAVRQTAMEFRKRARSDEFRPAQQPEQSVVAVKPPTTSAPVTPFPANLPVSEQLEDLSLLPGVRRVRPLPRSRYPVANDPFDKFSAYSGPGSSQQAVPRTISKISEESGSGSGSGSGNDSSGSSGPTRMSGQVPSTSGPPPPRPPPAGHQNPFLGNQPSTSNTSEPSTSTQGVSPSRTSKISKKKAHQAGLHSKGSSEDSTDSGESKPSSKQPPKKSPKSNKNDPNAPGPSRRRDDDDDGVQGGSSEGSSESL
MPESYWEKVSGKNIPSSLDLYPIIHNYLQEDDEILDIGCGSGKISLELASLGYSVTGIDINSEAIRLAETAARSPGLNQKTGGKAEFKVENASSLSFHDSSFDFAVMQAFLTSVPDPKERSRIIKEVFRVLKPGAYLYLVEFGQNWHLKLYRKRYLHDFPITKEEGSFLARDPETGETEFIAHHFTEKELVFLLTDCRFEIDYFRVKELETRTGNKILGFVIIAQKLLEHHHHHH
MSLIIQVSPAGSMDLLSQLEVERLKKTASSDLYQLYRNCSLAVLNSGSHTDNSKELLDKYKNFDITVMRRERGIKLELANPPEHAFVDGQIIKGIQEHLFSVLRDIVYVNMHLADSQRLNLTNATHITNLVFGILRNAGALIPGATPNLVVCWGGHSINEVEYQYTREVGHELGLRELNICTGCGPGAMEGPMKGAAVGHAKQRYSEYRYLGLTEPSIIAAEPPNPIVNELVIMPDIEKRLEAFVRMAHGIIIFPGGPGTAEELLYILGIMMHPENADQPMPIVLTGPKQSEAYFRSLDKFITDTLGEAARKHYSIAIDNPAEAARIMSNAMPLVRQHRKDKEDAYSFNWSLKIEPEFQLPFEPNHESMANLDLHLNQRPEVLAANLRRAFSGVVAGNVKAEGIREIERHGPFEMHGDPVLMKKMDQLLNDFVAQNRMKLPGGSAYEPCYKIVTEGHHHHHH
SLKPIMYNEKRGVSVMDIKLQQTQILKPQLTQELKQAITLLGYNSAELAGYIDELSLENPLIERKETDTPPLSYHKTNKNRMKEQDVSQQIRLTRKTLQDSLKQQAIDMKLSDAEKKIFNYLIYSLDSNGYLKEDIQAAADHVSASLEETEAVLAKLQSLEPAGIGARSLQECILLQLRRLPERNEQAEWIAGAYFELFARKNWKALTLQTGIPLKDIQDIFDMISALDPRPGLRYAHEEPGFYVEPDIFNTVKNGIIQARLNSRSFPDIQLHAHYRPMLSAAGCRDVQQVPF

Soluble on expression in E. coli, not soluble:
MGSDKIHHHHHHMKLHYKKEHISCTNYKSESYEGFGIGTLTSGSNFNSQTLSVKTNFLIFILEGEVEIIPKEGKIKRVIAQEFFFISALSTYEIQVRVPGRYIYMSFLYNDIKLCEKHMLESYLKEVREASEEVGILSVRHPLNLFLELIDAYLRAGVNCKHLHSIKEKELFIILRTSYSKQEIVNLFHEIIGTNMSFKAAVLLHVDRVNNREELAQAMGMSITDLARKFKVEFGESVYSWLLKQKNKKIIYRLAQPGASVKEIVYEFGFSSAASFNKYCKKNFGNSPRELVRQLKDKHIDNQNLKI
MGSDKIHHHHHHADFVSDYIWRGAYQNSGFSVQPTLGLSYGNLSLSAWGSQSLTKTDGAQEFDINLSYTIGGLGITVTDYWWNGITMPYGDYKHDHHFEGTLAYNFGENFPLTLSWSTMFAGGDDNKDGDRAYSTYINASYNIACPAEITLTPSVGFTPWKGMYDADGAAFTDIALKASKNINITDHFSLPLFVQAIVSPSFDKTYLIAGLSIGF
MGSDKIHHHHHHMRVNSQSNHDVSPAPSGVVLEAADPAELLVRAQKTLGLLSPLLSPLAQAFHDRGHRLYLVGGSVRDALLDELGHDLDCTTDARPEVVSAILEEYAPVVWDTGIEFGTVSAEKDGQQIEITTFRSDVYDGQSRNPEVQFGDTLEGDLIRRDFTVNAMAMEILPDGSMQFHDPVGGMNDLVAGLLDTPATPQQSFNDDPLRMLRAARFVSQLGFDLAPRVRHAMTEMADQITRITAERVQVELDKMICGKVPWDGIDVMVDTGLADIIYPEISALRLTQDEHHQHKDVYAHSLTVLRQAMDQEEDGPDVVLRWAALMHDCGKPDTREFSPEGRVSFHQHEIVGARLMRHRMRALKYSKHTIRDVSELIRLHMRFHGFSEGEWTDSAVRRYVTDAGDLLPRLHKLVRADCTTRNKKKAERLQKTYDHLEDRIADIAAKEDLAKVRPDLDGNEIMEILDIKAGPQVGQAWKFLKELRLERGPLEREDAILELKKWWYEQ
MPTTPRSQPGTVGKDMAGALAGRHNDMPPISSNYQGRPGNANPNYRYQPSADNARNVADWTKSHMKTARENAAAKR
MGSDKIHHHHHHMSLVRLQDVSVRFDNTQILREAFFRLEPRDRVGLIGKNGSGKTTMLQLILDRITPESGTVTVEPGTRIGYFSQFSELNGASTITDVLDGLFSEIKAVEAELASIDTAIAGDPAGAELDRLIARQAELFEDMDRLDGWDYPRRIDKVLTTLGFSDAHRVCAIDELSGGWRNRAALAKILLEDPDVLLLDEPTNFLDVAGVEWLESWFRDFKGAAIIVSHDRKFLDAVVTRIIEVENFHLHEYPGNFGEYIVQKQFRLKSLEQQFVHESELLAFEAEGIADRREAAKAASRGLGNQLAKIKKSRTPRPVDQIVTEIYGGLHVKDVLCRVEGLGKSYGDKALFTGLGFEIRRGNRIVVLGANGSGKSTLLKVLTGEEEADAGVVSWAKGPGFVSYNRMLEELDDADTVSHAVNALPDSLAFSATRKSVNRFLAMFQFSEADLKQKIGNLSGGQKARVAMAQCLLSGASVLLLDEPTNHLDLSSTQVMERALMHFPGAVVVVSHDRFFSEKIANRYLVFGADAALPGEVEVRAA
MDKIIFQRVTDCEYPSLFSIYKKYLKPTIEEALGWDELYQQQRFNQSYQKEWFDWIMYNGERLGIICTKPDAIRSTIHIHLLIVFEKYQNKGVGTAVMKCYQKHYSDAVTKSCLSAFKVNKSVINFYLSLGYQIVREDEHFVEMERSLCFSGYMGES
MGSDKIHHHHHHMSSSHSKNGNENETAKGITRISVSGYKSLYDECSIEIRPLTILAGANSSGKSSIIQPLLLMKQTLEATYDPGALLLNGANVKFTSAEQLISHLPGKERIQRFVIGIEIEHNQSVKNIFTKFPRQPIDLQEMIVEKNDSKVSLSTDTLPADVVNILPKQYLDFYKSIQDTDLKGKFFFIISRNRCFLEFELYDFINQKKLSSQSFLFNYITPDHTELFGRQIRKIIHIPGLRGNPERNYKTTAVGDAFPGTFDNYVASIIHRWQRPRDKRLQELNNALVSLGLTSKVQAKQLDDTQVELRVARLTRNSDNEKDMVSIADVGFGVSQTLPVLVALLVAEPGQLVYIEQPEIHLHPRAQVAMAEILANAAKRGVKIVVETHSDRLILATQSLVAEGNLSPDLVKLHWFTRQEDGITKINSADLDETGAFGDWPEDFGDVSLQLENRYLSAAEARLIQGTHGG
MAHHHHHHMSLRPDVFGQPPIVDRFARFAIARRGSSSSHNNNNNNNNNNSGSVSPLERGGVHGNDKSPAAAPVAAGVGSKAGVRESSAKSRLSLGVSNTDVVLESPISSNAAEATSEVMDVTSTAQADDEEEDEVETLNRFMADQSDETATRTHKRTLFSLNLTLAEVMETAMHFSQMRPTSPEEYKKAMAMIRAADDARHERIAAFRSATPTTGSHNGMGSSPSSSLTTTPTVGYPDAALHIEEPMHFGVVMLHIRFALRKIIHASMRRLAAQQGPKTLSMMVEMLREVDPKWHQNQNNNSGELRRQSDSMLAGTLRVLVARSVVCVDLVGEAGDLLGGGAGGLAISAVGLQRTERALHLVQRAKRSATGSGGNTGDHVSRRRPQRHRGDGGARTSSSGEKRSIS
MLMIKGIIFDMDGVLFDTEPFYLRRREDFFKTKGIPIDHLNSKDFIGGNLQELWKELLGKNRDDAIVKAITTDYDAYKQAHKPPYQKLLITEVNSCLEQLEKQGIKLAVASNSKRQDVLLALETTQIKDYFEIILAREDVSRGKPYPDIYNKAVQKLGLQKKQLLVVEDSQKGIAAAKAANLTVFAITDYRYGIDQSQADHKIDHLGQLCVKIGCFGS
MMQYMLLFSRQGKLRLQKWYTAYPDKQKKKICRELITQILARKPKMCAFLEYKDLKVVYKRYASLYFCCAIEQNDNELITLEVIHRYVELLDKYFGSVCELDIIFNFEKAYFILDEFLLAGEIQETSKKQVLKAIAAQDLIQEEETPQGFFEDHGLG
SQKQKALLQRVETDITSVVDNFTQIVNVSRVSDPPVKNSQETYMMEMRASRMATQVLLKDFLMSLWSVVNLLPHQWWQVQAADSLLKLVSELKQTAIFSGFASLNDHVEQRIEEFDQEAEKTNRLLARIADDASANLKELESHYYSSAQRLTLDI
MGSDKIHHHHHHTYTPGTMGEGVVYYLPKTEIELQVTATKVVYTPGEFCQYADRYLRLTGISSQPEEHWEINSIKVNSIGIPDPDNAYAVKLKDKSAASQVELTPEGIIKAINTTSPIEKAPVTKVADTVKKRIDPRSFMTEEILIAGSTAKMAELVAKEIYNIRESKNSLTRGQADYMPKDGAALKLMLDNLDEQEQAMMQMFAGTTDRIEKSFTIRIKPEADMKEKVAFRFSKKLGMLDADNLSGEPYYISIVNQETLPPMDPKGKEKKKTDGVIYNIPGKAQVTVFTPNKRYFDGELPVTQFGTTECLIDNLFNKKVNTRVIFNPNTGGIVKIDKD
MPPYFSPKSEAPICGYCQLTFSQTGSMTRHRDRLHTKNHTCLICVSNCEGAPILGESIKKHLQHAHGYVDVQSCSCCHWIFENKIQLRTHLDAMKATGQPGDEVVLAKGTFAPGTLSQAAILQSKAYSANRQQKCQQSLKVDSGGFNDLSETQLKFILDNYSQIVGELESPNPKISGCRKRKCGMTIQHVLRDDDFKKIELC
